# In publication PMC9136605 (Acta Pharmaceutica Sinica. B, 2021):
# B1: human LDHC L56E/I332Q double mutant (LDHC-mutant), recombinant with C-terminal His6-tag (enzyme)
# chain: not shown
# Biological target: the molecule itself
# Experiment: crystal structure
protein,measurement,value
B1,stoichiometry N,4
